Biological target: NADPH oxidase 3 (NOX3)
Experiment: cell-based or functional assay

p67^phox/NOXA2 gave a PMA-induced superoxide generation of NOX3 (co-transfected HEK293 cells) of 2 fold.

Reference: patent US20090263323A1
